{"source": "patent US20150056630A1", "about": "“DNA CONTROLLING MIR-140 EXPRESSION, AND SCREENING METHOD OF DRUGS USING SAID DNA” (NATIONAL CENTER FOR CHILD HEALTH AND DEVELOPMENT, priority 2012, published 2015)", "key": {"[1]": {"molecular_target": "T1, Sox9 (recombinant, rSox9) (UniProt Q04887 Q04887:1-507)", "assay": "EMSA; 0.1 ug rSox9, poly dG-dC, 50 mM KCl, room temperature; supershift with anti-Sox9", "conditions": "label: 32P", "procedure": "(§1) To a reaction solution containing 20 mmol/L of HEPES (pH 7.9), 10% of glycerol, 50 mmol/L of KCl, 0.05% of NP-40, 0.5 mmol/L of EDTA, 0.5 mmol/L of DTT, 1 mmol/L of PMSF and 0.25 μg of Poly dG-dC was/were appropriately added 0.1 μg of a recombinant Sox9 (rSox9) and/or an anti-Sox9 antibody (manufactured by Millipore Corporation) followed by incubating at room temperature for 30 minutes. After that, the above RI-labeled probe was added, incubated at room temperature for 30 minutes and subjected to 4% polyacrylamide gel electrophoresis. After the electrophoresis, RI was detected using FLA-7000 (manufactured by Fujifilm) which is an image analysis apparatus."}, "[2]": {"molecular_target": "T1, Sox9 (recombinant, rSox9)", "assay": "EMSA; left-side half-site mutated; shift still observed", "conditions": "label: 32P", "procedure": "as §1"}, "recombinant Sox9 (rSox9)": {"molecular_target": "T2, recombinant Sox9 (rSox9) (Homo sapiens, UniProt P48436)", "T2 sequence (P48436 1-509)": "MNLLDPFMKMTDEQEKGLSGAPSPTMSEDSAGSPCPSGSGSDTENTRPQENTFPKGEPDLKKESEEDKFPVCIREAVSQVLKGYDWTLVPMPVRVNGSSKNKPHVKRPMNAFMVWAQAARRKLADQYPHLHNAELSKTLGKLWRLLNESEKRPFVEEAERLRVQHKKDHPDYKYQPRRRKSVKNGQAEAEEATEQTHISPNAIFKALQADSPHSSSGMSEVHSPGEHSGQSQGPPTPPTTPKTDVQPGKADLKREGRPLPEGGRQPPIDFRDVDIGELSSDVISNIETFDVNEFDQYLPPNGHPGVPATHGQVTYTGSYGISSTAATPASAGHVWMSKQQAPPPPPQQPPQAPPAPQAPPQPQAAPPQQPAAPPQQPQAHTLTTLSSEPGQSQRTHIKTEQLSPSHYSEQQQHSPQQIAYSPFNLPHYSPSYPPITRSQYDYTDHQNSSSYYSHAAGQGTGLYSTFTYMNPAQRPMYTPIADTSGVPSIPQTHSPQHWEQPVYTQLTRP", "assay": "Electrophoretic mobility shift assay (EMSA), Sox9 binding of RI-labeled probes", "conditions": "for shift of the band: incubation with rSox9", "procedure": "To a reaction solution comprising 1× Protruding End Kinase buffer, 0.4 μmol/L of sense oligo or antisense oligo and 1 U of T4 Polynucleotide Kinase (manufactured by Toyobo Co., Ltd.) was added P^32 γATP followed by subjecting to a reaction at 37° C. for 1 hour. The sense oligo and the antisense oligo finishing each of their reactions were mixed, incubated at 99° C. for 10 seconds and gradually returned to room temperature during 1 hour to prepare a double-stranded DNA labeled with radioisotope (RI). The RI-labeled probe was used after purifying by PrbeQuant G-50 Micro Column.\nas §1"}, "[3]": {"molecular_target": "T1, Sox9 (recombinant, rSox9)", "assay": "EMSA; right-side half-site mutated; shift disappeared", "conditions": "label: 32P", "procedure": "as §1"}, "[4]": {"molecular_target": "T1, Sox9 (recombinant, rSox9)", "assay": "EMSA; both sides mutated; shift disappeared", "conditions": "label: 32P", "procedure": "as §1"}}}
{"molecule": "miR140-PSB probe (dsDNA) DNA 1: CTGGACTGAGCCCCATTCATCGTCCTGCTGCT DNA 2: AGCAGCAGGACGATGAATGGGGCTCAGTCCAG", "values": [{"measurement": "binding result", "setting": "[1]", "result": "binds"}]}
{"molecule": "miR140-PSB-mut2 probe (dsDNA) DNA 1: CTGGGTTGGGCCCCATTCATCGTCCTGCTGCT DNA 2: AGCAGCAGGACGATGAATGGGGCCCAACCCAG", "values": [{"measurement": "binding result", "setting": "[2]", "result": "binds"}]}
{"molecule": "miR-140-PSB-mut2: RI-labeled probe, SEQ ID Nos. 32/33, mutation in the left side of the palindromic Sox9 binding sequence (nucleic acid, DNA, backbone and methylation of C not given here; radioisotope-labeled double-stranded DNA probe, further chemistry not fully specified) chain 1: CTGGGTTGGGCCCCATTCATCGTCCTGCTGCT chain 2: AGCAGCAGGACGATGAATGGGGCCCAACCCAG", "values": [{"measurement": "shift of the band", "setting": "recombinant Sox9 (rSox9)", "result": "shift of the band was observed"}]}
{"molecule": "miR140-PSB-mut1 probe (dsDNA) DNA 1: CTGGACTGAGCCCCAGGCATCGTCCTGCTGCT DNA 2: AGCAGCAGGACGATGCCTGGGGCTCAGTCCAG", "values": [{"measurement": "binding result", "setting": "[3]", "result": "no binding"}]}
{"molecule": "miR-140-PSB: RI-labeled double-stranded DNA probe, SEQ ID Nos. 28/29, palindromic Sox9 binding sequence (Table 3: miR140-PSB) (nucleic acid, DNA, backbone and methylation of C not given here; radioisotope-labeled double-stranded DNA probe, further chemistry not fully specified) chain 1: CTGGACTGAGCCCCATTCATCGTCCTGCTGCT chain 2: AGCAGCAGGACGATGAATGGGGCTCAGTCCAG", "values": [{"measurement": "shift of the band", "setting": "recombinant Sox9 (rSox9)", "result": "shift of the band was observed"}, {"measurement": "supershift of the band", "setting": "recombinant Sox9 (rSox9); rSox9 and further incubation with anti-Sox9 antibody", "result": "supershift of the band was observed"}]}
{"molecule": "miR-140-PSB-mut1: RI-labeled probe, SEQ ID Nos. 30/31, mutation in the right side of the palindromic Sox9 binding sequence (nucleic acid, DNA, backbone and methylation of C not given here; radioisotope-labeled double-stranded DNA probe, further chemistry not fully specified) chain 1: CTGGACTGAGCCCCAGGCATCGTCCTGCTGCT chain 2: AGCAGCAGGACGATGCCTGGGGCTCAGTCCAG", "values": [{"measurement": "shift of the band", "setting": "recombinant Sox9 (rSox9)", "result": "shift of the band disappeared"}]}
{"molecule": "miR140-PSB-mut3 probe (dsDNA) DNA 1: CTGGGTTGGGCCCCAGGCATCGTCCTGCTGCT DNA 2: AGCAGCAGGACGATGCCTGGGGCCCAACCCAG", "values": [{"measurement": "binding result", "setting": "[4]", "result": "no binding"}]}
{"molecule": "miR-140-PSB-mut3: RI-labeled probe, SEQ ID Nos. 34/35, mutation in both sides of the palindromic Sox9 binding sequence (nucleic acid, DNA, backbone and methylation of C not given here; radioisotope-labeled double-stranded DNA probe, further chemistry not fully specified) chain 1: CTGGGTTGGGCCCCAGGCATCGTCCTGCTGCT chain 2: AGCAGCAGGACGATGCCTGGGGCCCAACCCAG", "values": [{"measurement": "shift of the band", "setting": "recombinant Sox9 (rSox9)", "result": "shift of the band disappeared"}]}
